Results on 1 substance are retold here after patent US20050106177A1.

What all share (assay): cell-based or functional assay
The target of test [1] is HXBc2 envelope glycoproteins on recombinant HIV-1 (HIV-1, TCLA strain HXBc2) (UniProt P04578).
The target of test [2] is ADA envelope glycoproteins on recombinant HIV-1 (HIV-1, primary isolate ADA).
The target in test [3] is YU2 envelope glycoproteins on recombinant HIV-1 (HIV-1, primary isolate YU2) (UniProt P35961).

A value given as a limit tells only on which side of the number the result lay.

Chain of UniProt P35961 (P35961 32-843): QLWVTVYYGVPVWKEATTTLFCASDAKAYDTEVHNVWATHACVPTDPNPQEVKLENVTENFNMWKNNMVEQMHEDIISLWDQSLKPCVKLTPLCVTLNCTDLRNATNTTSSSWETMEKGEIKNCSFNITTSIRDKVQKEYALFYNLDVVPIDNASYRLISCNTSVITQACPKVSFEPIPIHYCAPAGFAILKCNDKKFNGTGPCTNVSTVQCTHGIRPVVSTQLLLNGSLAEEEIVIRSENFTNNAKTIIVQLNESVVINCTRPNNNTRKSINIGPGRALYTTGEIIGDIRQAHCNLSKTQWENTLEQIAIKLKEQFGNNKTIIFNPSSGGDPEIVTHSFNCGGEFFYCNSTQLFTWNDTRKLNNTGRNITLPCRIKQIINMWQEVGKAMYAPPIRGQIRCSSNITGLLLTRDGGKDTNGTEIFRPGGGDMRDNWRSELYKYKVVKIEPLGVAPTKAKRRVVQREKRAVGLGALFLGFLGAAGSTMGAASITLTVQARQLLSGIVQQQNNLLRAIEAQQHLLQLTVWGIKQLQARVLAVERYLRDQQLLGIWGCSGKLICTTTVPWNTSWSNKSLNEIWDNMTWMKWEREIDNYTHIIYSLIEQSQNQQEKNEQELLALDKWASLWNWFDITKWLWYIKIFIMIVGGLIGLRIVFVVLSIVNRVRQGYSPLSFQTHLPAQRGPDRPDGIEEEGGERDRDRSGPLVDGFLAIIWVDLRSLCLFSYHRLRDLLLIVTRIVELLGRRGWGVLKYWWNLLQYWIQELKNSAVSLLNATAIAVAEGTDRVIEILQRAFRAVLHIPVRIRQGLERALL

As to IgG1b12 antibody, the 90% neutralization of recombinant virus, single-round luciferase entry assay (g/ml (so in the source); symbol garbled)) in test [1] came out at 1.25. Further, in test [2], the 50% neutralization of recombinant virus, single-round luciferase entry assay (:g/ml (so in the source); symbol garbled)) is 2.5 and the 90% neutralization of recombinant virus, single-round luciferase entry assay (:g/ml (so in the source); symbol garbled)) was greater than 10. In test [3], the 50% neutralization of recombinant virus, single-round luciferase entry assay (:g/ml (so in the source); symbol garbled)) came out at 5 and the 90% neutralization of recombinant virus, single-round luciferase entry assay (:g/ml (so in the source); symbol garbled)) was greater than 20.
